Measurements taken from the supplement of paper PMC9112550, “Optimization of the antimicrobial peptide Bac7 by deep mutational scanning” (BMC Biology, 2022).

tested on: Escherichia coli TOP10; assay: shrunken log2 fold change of peptide-encoding DNA abundance (4.5 h post-induction vs induction); higher = less antimicrobial activity (less host growth inhibition); details: time post-induction: 4.5 h; library: site-saturation at positions 5, 18, 19, 20
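Also: peptides expressed intracellularly from a pBAD plasmid library in pooled LB shake-flask culture, induced with 0.3% L-arabinose, DNA abundance read by NGS, three biological replicates, DESeq2 with apeglm shrinkage.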

Sequence	shrunken log2 fold change
RRIRRRPPRLPRPRPRPISCPRP	0.00341
RRIRHRPPRLPRPRPRPALCPRP	0.174
RRIRLRPPRLPRPRPRPLHAPRP	0.261
RRIRMRPPRLPRPRPRPEEVPRP	0.00922
RRIRDRPPRLPRPRPRPFYHPRP	-0.124
RRIRHRPPRLPRPRPRPLTRPRP	0.0261
RRIRRRPPRLPRPRPRPIGRPRP	0.00106
RRIRKRPPRLPRPRPRPLKWPRP	0.18
RRIRDRPPRLPRPRPRPYRVPRP	-0.0135
RRIRVRPPRLPRPRPRPPCMPRP	-0.0452
RRIRLRPPRLPRPRPRPGQRPRP	0.0889
RRIRWRPPRLPRPRPRPHQMPRP	-0.34
RRIRRRPPRLPRPRPRPNGYPRP	0.17
RRIRFRPPRLPRPRPRPTVIPRP	-0.371
RRIRHRPPRLPRPRPRPWTRPRP	-0.0761
RRIRCRPPRLPRPRPRPTKQPRP	-0.0825
RRIRRRPPRLPRPRPRPYWQPRP	-0.0961
RRIRYRPPRLPRPRPRPVPGPRP	-0.151
RRIRCRPPRLPRPRPRPKVTPRP	-0.455
RRIRHRPPRLPRPRPRPNHDPRP	-0.719
RRIRIRPPRLPRPRPRPLLSPRP	-0.483
RRIRTRPPRLPRPRPRPYKKPRP	-0.317
RRIRDRPPRLPRPRPRPCLVPRP	0.148
RRIRVRPPRLPRPRPRPYGEPRP	-0.204
RRIRHRPPRLPRPRPRPVYYPRP	-1.02
RRIRTRPPRLPRPRPRPCDEPRP	-0.0429

Sequence	shrunken log2 fold change
RRIRIRPPRLPRPRPRPVHFPRP	-0.355
RRIRKRPPRLPRPRPRPSNEPRP	-0.183
RRIRFRPPRLPRPRPRPKRPPRP	0.755
RRIRTRPPRLPRPRPRPHPPPRP	0.271
RRIRARPPRLPRPRPRPHPHPRP	0.322
RRIRTRPPRLPRPRPRPAHTPRP	0.09
RRIRCRPPRLPRPRPRPFFFPRP	0.101
RRIRARPPRLPRPRPRPDSNPRP	0.179
RRIRARPPRLPRPRPRPCFMPRP	-0.0304
RRIRTRPPRLPRPRPRPARIPRP	-0.0205
RRIRKRPPRLPRPRPRPSAFPRP	0.619
RRIRQRPPRLPRPRPRPLFRPRP	-0.227
RRIRARPPRLPRPRPRPEWVPRP	0.775
RRIRRRPPRLPRPRPRPLQMPRP	-0.133
RRIRWRPPRLPRPRPRPNMSPRP	-0.00987
RRIRHRPPRLPRPRPRPQMRPRP	0.209
RRIRPRPPRLPRPRPRPVLQPRP	0.162
RRIRVRPPRLPRPRPRPQAVPRP	-0.0188
RRIRMRPPRLPRPRPRPNETPRP	-0.0123
RRIRKRPPRLPRPRPRPGHLPRP	0.0738
RRIRCRPPRLPRPRPRPMKSPRP	-0.1
RRIRWRPPRLPRPRPRPKCVPRP	-0.0153
RRIRLRPPRLPRPRPRPSSPPRP	-0.115
RRIRRRPPRLPRPRPRPHTPPRP	-0.039
RRIRARPPRLPRPRPRPCYVPRP	-0.279
RRIRVRPPRLPRPRPRPPQRPRP	0.374

Sequence	shrunken log2 fold change
RRIRLRPPRLPRPRPRPPELPRP	0.389
RRIRLRPPRLPRPRPRPCHKPRP	-0.278
RRIRCRPPRLPRPRPRPWGGPRP	0.36
RRIRNRPPRLPRPRPRPEKTPRP	-0.0226
RRIRERPPRLPRPRPRPRTNPRP	0.00565
RRIRTRPPRLPRPRPRPMDGPRP	-0.123
RRIRKRPPRLPRPRPRPIWSPRP	-0.0718
RRIRRRPPRLPRPRPRPWWLPRP	-0.00877
RRIRYRPPRLPRPRPRPECFPRP	-0.288
RRIRERPPRLPRPRPRPGPIPRP	0.0264
RRIRFRPPRLPRPRPRPDVKPRP	-0.0558
RRIRERPPRLPRPRPRPCFKPRP	-0.0311
RRIRQRPPRLPRPRPRPKNDPRP	-0.379
RRIRGRPPRLPRPRPRPWPFPRP	0.745
RRIRDRPPRLPRPRPRPRNGPRP	0.0517
RRIRDRPPRLPRPRPRPESLPRP	1.01
RRIRFRPPRLPRPRPRPSEFPRP	-0.301
RRIRVRPPRLPRPRPRPHSIPRP	-0.155
RRIRIRPPRLPRPRPRPVQSPRP	-0.168
RRIRARPPRLPRPRPRPLMLPRP	0.32
RRIRLRPPRLPRPRPRPDGHPRP	0.0499
RRIRRRPPRLPRPRPRPMKMPRP	0.18
RRIRNRPPRLPRPRPRPMRHPRP	-0.18
RRIRFRPPRLPRPRPRPLMSPRP	-0.0355
